Data from patent US20160264649A1.

Legend:
Assay in all cases: cell-based or functional assay
[1] = target: HIV-1 Env of isolate MGRM-D-022 (subtype D) (HIV-1)
[2] = target: HIV-1 Env of isolate 94 KE 105 (subtype AC) (HIV-1)
[3] = target: HIV-1 Env of isolate MGRM-D-020 (subtype D) (HIV-1)
[4] = target: HIV-1 Env of isolate 92WR026 (subtype A) (HIV-1)
[5] = target: HIV-1 Env of isolate MGRM-D-008 (subtype D) (HIV-1)
[6] = target: HIV-1 Env of isolate MGRM-F1-022 (subtype F) (HIV-1)
[7] = target: HIV-1 Env of isolate MGRM-F1-016 (subtype F) (HIV-1)
[8] = target: HIV-1 Env of isolate MGRM-AE-003 (subtype AE) (HIV-1)
[9] = target: HIV-1 Env of isolate MGRM-D-013 (subtype D) (HIV-1)
[10] = target: HIV-1 Env of isolate 92UG031 (subtype A) (HIV-1)
[11] = target: HIV-1 Env of isolate 92WR024 (subtype A) (HIV-1)
[12] = target: HIV-1 Env of isolate MGRM-AE-007 (subtype AE) (HIV-1)
[13] = target: HIV-1 Env of isolate MGRM-F1-008 (subtype F) (HIV-1)
[14] = target: HIV-1 Env of isolate 93WR029 (subtype A) (HIV-1)
[15] = target: HIV-1 Env of isolate MGRM-F1-023 (subtype F) (HIV-1)
[16] = target: HIV-1 Env of isolate MGRM-F1-015 (subtype F) (HIV-1)
[17] = target: HIV-1 Env of isolate 94UG103 (subtype A) (HIV-1)
[18] = target: HIV-1 Env of isolate MGRM-F1-017 (subtype F) (HIV-1)
[19] = target: HIV-1 Env of isolate MGRM-F1-018 (subtype F) (HIV-1)
[20] = target: HIV-1 Env of isolate MGRM-AE-004 (subtype AE) (HIV-1)
[21] = target: HIV-1 Env of isolate 92TH021 (subtype AE) (HIV-1)
[22] = target: HIV-1 Env of isolate 92WR009 (subtype A) (HIV-1)
[23] = target: HIV-1 Env of isolate MGRM-AE-002 (subtype AE) (HIV-1)
[24] = target: HIV-1 Env of isolate MGRM-D-029 (subtype D) (HIV-1)
[25] = target: HIV-1 Env of isolate MGRM-D-019 (subtype D) (HIV-1)
[26] = target: HIV-1 Env of isolate MGRM-D-011 (subtype D) (HIV-1)
[27] = target: HIV-1 Env of isolate MGRM-D-012 (subtype D) (HIV-1)
[28] = target: HIV-1 Env of isolate MGRM-D-003 (subtype D) (HIV-1)
[29] = target: HIV-1 Env of isolate MGRM-F1-020 (subtype F) (HIV-1)
[30] = target: HIV-1 Env of isolate MGRM-D-002 (subtype D) (HIV-1)
[31] = target: HIV-1 Env of isolate MGRM-F1-012 (subtype F) (HIV-1)
[32] = target: HIV-1 Env of isolate MGRM-D-005 (subtype D) (HIV-1)
[33] = target: HIV-1 Env of isolate MGRM-D-001 (subtype D) (HIV-1)
[34] = target: HIV-1 Env of isolate 92UG037 (subtype A) (HIV-1)
[35] = target: HIV-1 Env of isolate MGRM-F1-004 (subtype F) (HIV-1)
[36] = target: HIV-1 Env of isolate 92WR021 (subtype A) (HIV-1)
[37] = target: HIV-1 Env of isolate CMU02 (subtype AE) (HIV-1)
[38] = target: HIV-1 Env of isolate MGRM-AE-005 (subtype AE) (HIV-1)
[39] = target: HIV-1 Env of isolate MGRM-D-004 (subtype D) (HIV-1)
[40] = target: HIV-1 Env of isolate MGRM-F1-021 (subtype F) (HIV-1)
[41] = target: HIV-1 Env of isolate MGRM-F1-013 (subtype F) (HIV-1)
[42] = target: HIV-1 Env of isolate MGRM-D-014 (subtype D) (HIV-1)
[43] = target: HIV-1 Env of isolate MGRM-D-018 (subtype D) (HIV-1)
[44] = target: HIV-1 Env of isolate MGRM-D-021 (subtype D) (HIV-1)
[45] = target: HIV-1 Env of isolate MGRM-AE-001 (subtype AE) (HIV-1)
[46] = target: HIV-1 Env of isolate MGRM-AE-006 (subtype AE) (HIV-1)
[47] = target: HIV-1 Env of isolate MGRM-D-016 (subtype D) (HIV-1)
[48] = target: HIV-1 Env of isolate MGRM-D-026 (subtype D) (HIV-1)
[49] = target: HIV-1 Env of isolate MGRM-AE-008 (subtype AE) (HIV-1)
[50] = target: HIV-1 Env of isolate 92WR020 (subtype A) (HIV-1)
[51] = target: HIV-1 Env of isolate MGRM-D-028 (subtype D) (HIV-1)
[52] = target: HIV-1 Env of isolate MGRM-F1-010 (subtype F) (HIV-1)
[53] = target: HIV-1 Env of isolate VLGCA1 (subtype A) (HIV-1)
[54] = target: HIV-1 Env of isolate MGRM-F1-006 (subtype F) (HIV-1)
[55] = target: HIV-1 Env of isolate MGRM-F1-014 (subtype F) (HIV-1)
[56] = target: HIV-1 Env of isolate MGRM-D-024 (subtype D) (HIV-1)
[57] = target: HIV-1 Env of isolate 92UG114 (subtype D) (HIV-1)
[58] = target: HIV-1 Env of isolate 93UG077 (subtype A) (HIV-1)

Sequence of PGT-141 (4964_G22; 4993_K13) (antibody) (VH): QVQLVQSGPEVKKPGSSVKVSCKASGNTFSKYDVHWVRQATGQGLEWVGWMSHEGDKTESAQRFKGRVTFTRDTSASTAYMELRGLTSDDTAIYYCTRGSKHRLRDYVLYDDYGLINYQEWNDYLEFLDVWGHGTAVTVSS
Sequence of PGT-141 (4964_G22; 4993_K13) (antibody) (VL): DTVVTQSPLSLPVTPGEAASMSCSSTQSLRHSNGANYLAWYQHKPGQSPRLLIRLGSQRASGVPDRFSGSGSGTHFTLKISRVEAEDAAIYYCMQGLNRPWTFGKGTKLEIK
Sequence of PGT-142 (4995_E20) (antibody) (VH): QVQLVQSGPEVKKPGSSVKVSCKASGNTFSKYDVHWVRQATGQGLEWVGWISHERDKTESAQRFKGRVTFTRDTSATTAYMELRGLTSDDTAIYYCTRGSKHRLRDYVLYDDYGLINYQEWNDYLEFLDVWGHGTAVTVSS
Sequence of PGT-142 (4995_E20) (antibody) (VL): as the sequence (VL) above

PGT-141 (4964_G22; 4993_K13) (antibody) was tested, and the IC50 (pseudovirus neutralization) [1] was > 50 µg/mL, the IC50 (pseudovirus neutralization) [2] was 0.204 µg/mL and the IC50 (pseudovirus neutralization) [3] was > 50 µg/mL. For the same substance, the IC50 (pseudovirus neutralization) [4] was 1.78 µg/mL, the IC50 (pseudovirus neutralization) [5] was 0.371 µg/mL and the IC50 (pseudovirus neutralization) [6] was 0.114 µg/mL. For the same substance, the IC50 (pseudovirus neutralization) [7] was > 50 µg/mL, the IC50 (pseudovirus neutralization) [8] was > 50 µg/mL and the IC50 (pseudovirus neutralization) [9] was 0.179 µg/mL. For the same substance, the IC50 (pseudovirus neutralization) [10] was 0.093 µg/mL, the IC50 (pseudovirus neutralization) [11] was 0.175 µg/mL and the IC50 (pseudovirus neutralization) [12] was 33.1 µg/mL. It also gave an IC50 (pseudovirus neutralization) [13] of 0.193 µg/mL, an IC50 (pseudovirus neutralization) [14] of 0.019 µg/mL and an IC50 (pseudovirus neutralization) [15] of 0.307 µg/mL. For the same substance, the IC50 (pseudovirus neutralization) [16] was > 50 µg/mL, the IC50 (pseudovirus neutralization) [17] was > 50 µg/mL and the IC50 (pseudovirus neutralization) [18] was 30.8 µg/mL. The IC50 (pseudovirus neutralization) [19] was 0.785 µg/mL, the IC50 (pseudovirus neutralization) [20] was 0.001 µg/mL and the IC50 (pseudovirus neutralization) [21] was 0.001 µg/mL. For the same substance, the IC50 (pseudovirus neutralization) [22] was 0.022 µg/mL, the IC50 (pseudovirus neutralization) [23] was > 50 µg/mL and the IC50 (pseudovirus neutralization) [24] was 0.057 µg/mL. The IC50 (pseudovirus neutralization) [25] was 1.66 µg/mL, the IC50 (pseudovirus neutralization) [26] was > 50 µg/mL and the IC50 (pseudovirus neutralization) [27] was > 50 µg/mL. For the same substance, the IC50 (pseudovirus neutralization) [28] was > 50 µg/mL, the IC50 (pseudovirus neutralization) [29] was 1.15 µg/mL and the IC50 (pseudovirus neutralization) [30] was > 50 µg/mL. For the same substance, the IC50 (pseudovirus neutralization) [31] was > 50 µg/mL, the IC50 (pseudovirus neutralization) [32] was 5.15 µg/mL and the IC50 (pseudovirus neutralization) [33] was > 50 µg/mL. The IC50 (pseudovirus neutralization) [34] was 1.28 µg/mL, the IC50 (pseudovirus neutralization) [35] was 0.021 µg/mL and the IC50 (pseudovirus neutralization) [36] was > 50 µg/mL. For the same substance, the IC50 (pseudovirus neutralization) [37] was > 50 µg/mL, the IC50 (pseudovirus neutralization) [38] was > 50 µg/mL and the IC50 (pseudovirus neutralization) [39] was > 50 µg/mL. The IC50 (pseudovirus neutralization) [40] was > 50 µg/mL, the IC50 (pseudovirus neutralization) [41] was 0.043 µg/mL and the IC50 (pseudovirus neutralization) [42] was 0.01 µg/mL. The IC50 (pseudovirus neutralization) [43] was > 50 µg/mL, the IC50 (pseudovirus neutralization) [44] was > 50 µg/mL and the IC50 (pseudovirus neutralization) [45] was > 50 µg/mL. For the same substance, the IC50 (pseudovirus neutralization) [46] was > 50 µg/mL, the IC50 (pseudovirus neutralization) [47] was > 50 µg/mL and the IC50 (pseudovirus neutralization) [48] was 32.5 µg/mL. For the same substance, the IC50 (pseudovirus neutralization) [49] was 0.101 µg/mL, the IC50 (pseudovirus neutralization) [50] was > 50 µg/mL and the IC50 (pseudovirus neutralization) [51] was > 50 µg/mL. For the same substance, the IC50 (pseudovirus neutralization) [52] was > 50 µg/mL, the IC50 (pseudovirus neutralization) [53] was 2.07 µg/mL and the IC50 (pseudovirus neutralization) [54] was 8.99 µg/mL. The IC50 (pseudovirus neutralization) [55] was 0.001 µg/mL, the IC50 (pseudovirus neutralization) [56] was > 50 µg/mL and the IC50 (pseudovirus neutralization) [57] was > 50 µg/mL. For the same substance, the IC50 (pseudovirus neutralization) [58] was > 50 µg/mL.

In the case of PGT-142 (4995_E20) (antibody), the IC50 (pseudovirus neutralization) [1] is reported as > 50 µg/mL, the IC50 (pseudovirus neutralization) [2] is reported as 0.19 µg/mL and the IC50 (pseudovirus neutralization) [3] is reported as > 50 µg/mL. For the same substance, the IC50 (pseudovirus neutralization) [4] was 1.78 µg/mL, the IC50 (pseudovirus neutralization) [5] was 0.174 µg/mL and the IC50 (pseudovirus neutralization) [6] was 0.04 µg/mL. The IC50 (pseudovirus neutralization) [7] was > 50 µg/mL, the IC50 (pseudovirus neutralization) [8] was > 50 µg/mL and the IC50 (pseudovirus neutralization) [9] was 0.221 µg/mL. The IC50 (pseudovirus neutralization) [10] was 0.05 µg/mL, the IC50 (pseudovirus neutralization) [11] was 0.069 µg/mL and the IC50 (pseudovirus neutralization) [12] was 6.7 µg/mL. For the same substance, the IC50 (pseudovirus neutralization) [13] was 0.124 µg/mL, the IC50 (pseudovirus neutralization) [14] was 0.014 µg/mL and the IC50 (pseudovirus neutralization) [15] was 0.602 µg/mL. The IC50 (pseudovirus neutralization) [16] was > 50 µg/mL, the IC50 (pseudovirus neutralization) [17] was > 50 µg/mL and the IC50 (pseudovirus neutralization) [18] was 23.5 µg/mL. It also gave an IC50 (pseudovirus neutralization) [19] of 0.404 µg/mL, an IC50 (pseudovirus neutralization) [20] of 0.001 µg/mL and an IC50 (pseudovirus neutralization) [21] of 0.002 µg/mL. The IC50 (pseudovirus neutralization) [22] was 0.006 µg/mL, the IC50 (pseudovirus neutralization) [23] was > 50 µg/mL and the IC50 (pseudovirus neutralization) [24] was 0.192 µg/mL. The IC50 (pseudovirus neutralization) [25] was 0.155 µg/mL, the IC50 (pseudovirus neutralization) [26] was > 50 µg/mL and the IC50 (pseudovirus neutralization) [27] was > 50 µg/mL. For the same substance, the IC50 (pseudovirus neutralization) [28] was > 50 µg/mL, the IC50 (pseudovirus neutralization) [29] was 0.824 µg/mL and the IC50 (pseudovirus neutralization) [30] was > 50 µg/mL. For the same substance, the IC50 (pseudovirus neutralization) [31] was > 50 µg/mL, the IC50 (pseudovirus neutralization) [32] was 1.15 µg/mL and the IC50 (pseudovirus neutralization) [33] was > 50 µg/mL. For the same substance, the IC50 (pseudovirus neutralization) [34] was 0.557 µg/mL, the IC50 (pseudovirus neutralization) [35] was 0.013 µg/mL and the IC50 (pseudovirus neutralization) [36] was > 50 µg/mL. For the same substance, the IC50 (pseudovirus neutralization) [37] was > 50 µg/mL, the IC50 (pseudovirus neutralization) [38] was > 50 µg/mL and the IC50 (pseudovirus neutralization) [39] was > 50 µg/mL. For the same substance, the IC50 (pseudovirus neutralization) [40] was > 50 µg/mL, the IC50 (pseudovirus neutralization) [41] was 0.023 µg/mL and the IC50 (pseudovirus neutralization) [42] was 0.005 µg/mL. For the same substance, the IC50 (pseudovirus neutralization) [43] was > 50 µg/mL, the IC50 (pseudovirus neutralization) [44] was > 50 µg/mL and the IC50 (pseudovirus neutralization) [45] was > 50 µg/mL. For the same substance, the IC50 (pseudovirus neutralization) [46] was > 50 µg/mL, the IC50 (pseudovirus neutralization) [47] was > 50 µg/mL and the IC50 (pseudovirus neutralization) [48] was 12.5 µg/mL. The IC50 (pseudovirus neutralization) [49] was 0.08 µg/mL, the IC50 (pseudovirus neutralization) [50] was 31.5 µg/mL and the IC50 (pseudovirus neutralization) [51] was > 50 µg/mL. For the same substance, the IC50 (pseudovirus neutralization) [52] was > 50 µg/mL, the IC50 (pseudovirus neutralization) [53] was 2.75 µg/mL and the IC50 (pseudovirus neutralization) [54] was 12.9 µg/mL. The IC50 (pseudovirus neutralization) [55] was 0.001 µg/mL, the IC50 (pseudovirus neutralization) [56] was > 50 µg/mL and the IC50 (pseudovirus neutralization) [57] was > 50 µg/mL. For the same substance, the IC50 (pseudovirus neutralization) [58] was > 50 µg/mL.
